Experimental findings from patent US20100196951 are described below.

The data set has as its target MazE antitoxin with the Thrombin-recognition sequence LVPRGS in place of VDGK at positions 38 to 41 (UniProt P0AE72).

In the case of Biothinylated Thrombin (Novagen), the “removal of the MazE band on SDS-PAGE after overnight Thrombin treatment (0.01 to 0.08 units)” value is “the residual MazE protein was successfully removed from the purified MazF sample by Thrombin treatment (lanes 2 to 5)”.
